The source of these data is patent US20210380703A1.

B1: 374_F01 (antibody, V domains shown)
VH: EVQLLESGGGLVQPGGSLRLSCAASGFTFDSYSMNWVRQAPGKGLEWVSNINYNGGYTGYADSVKGRFTISRDNSKNTLYLQMNSLRAEDTAVYYCARSANWHDTALDYWGQGTLVTVSS
VL: DIQMTQSPSSLSASVGDRVTITCRASQSILSYVNWYQQKPGKAPKLVIYAATSRHSGVPSRFSGSGSGTDFTLTISSLQPEDFATYYCQQSYENPLTFGGGTKVEIK
B2: 375_D04 (antibody, V domains shown)
VH: B1 VH with S31D, Y32S, N35H, R98K
VL: B1 VL with H55A, N94L
B3: 374_F10 (antibody, V domains shown)
VH: B1 VH with D30S, N50G, G59S
VL: B1 VL with V33L, H55A, E93D
B4: 374_H07 (antibody, V domains shown)
VH: B1 VH with S33G, S49A
VL: B1 VL with S31T, V33L, V47L, H55A, N94T
B5: 374_G04 (antibody, V domains shown)
VH: B1 VH with D30S, S49A, N50G
VL: B1 VL with S31T, V33L, R54L, H55A, E93D
B6: 375_A05 (antibody, V domains shown)
VH: B1 VH with D30S, S33G, S49A, T58K
VL: B1 VL with V33L, V47L, H55A, E93D, N94L
B7: 375_D12 (antibody, V domains shown)
VH: B1 VH with S33G, N50S, G55S, G59S
VL: B1 VL with S31T, H55A, N94T
B8: 374_H04 (antibody, V domains shown)
VH: B1 VH with N50G, G55S, G59S
VL: B1 VL with S31T, V33L, V47L, H55A, E93D
B9: 375_C06 (antibody, V domains shown)
VH: B1 VH with S31D, S33G, N35H, S49A, N50S, G55S, G59S
VL: B1 VL with S31T, A51T, H55A, E93D, N94S
B10: 374_E08 (antibody, V domains shown)
VH: B1 VH with D30S, S33G, S49A, N50G, T58K, G59S
VL: B1 VL with V33L, V47L, E93D, N94L
B11: 374_F04 (antibody, V domains shown)
VH: B1 VH with D30S, S33G, N50G, G55S, T58K, G59S
VL: B1 VL with S31T, V47L, H55A, E93N, N94S
B12: 374_H09 (antibody, V domains shown)
VH: B1 VH with D30S, S49A, G55S, T58K, G59S
VL: B1 VL with V33L, A51V, R54L, H55A, E93D, N94L
B13: 374_E02 (antibody, V domains shown)
VH: B1 VH with D30S, N50G, G59S
VL: B1 VL with V33L, V47L, R54L, H55A, E93D, N94L
B14: 374_G06 (antibody, V domains shown)
VH: B1 VH with D30S, S33G, N35H, S49A, N50S, G59S
VL: B1 VL with V33L, V47L, A51V, H55A, E93D, N94L
B15: 374_H03 (antibody, V domains shown)
VH: B1 VH with D30S, S33G, N50G, G55S, T58K, G59S
VL: B1 VL with H55A, E93D, N94S
B16: 374_E05 (antibody, V domains shown)
VH: B1 VH with D30S, S49A, N50G, G59S
VL: B1 VL with Y32F, H55A, E93N, N94L
B17: 374_F02 (antibody, V domains shown)
VH: B1 VH with S49A, G55S, G59S
VL: B1 VL with L30V, V33L, V47L, T52S, R54L, H55Q, N94L
B18: 374_H06 (antibody, V domains shown)
VH: B1 VH with D30S, S33G
VL: B1 VL with L30V, H55A, E93N, N94L
B19: 375_D05 (antibody, V domains shown)
VH: B1 VH with D30S, S49A, N50S, G55S, G59S, A106H
VL: B1 VL with L30V, V33L, V47L, R54L, E93D, N94T
B20: 374_F11 (antibody, V domains shown)
VH: B1 VH
VL: B1 VL with V33L, V47L, A51V, R54L, H55A, N94S
B21: 374_G07 (antibody, V domains shown)
VH: B1 VH with D30S, N50G, G55S, T58K, G59S
VL: B1 VL with L30I, V33L, V47L, H55A, E93D, N94S
B22: 375_D07 (antibody, V domains shown)
VH: B1 VH with D30S, S33G, S49A, G55S
VL: B1 VL with L30I, S31T, V33L, V47L, H55A, E93D, N94T
B23: 374_E11 (antibody, V domains shown)
VH: B1 VH with D30S, S33G, G59S
VL: B1 VL with L30V, S31T, V33L, H55A, E93D, N94S
B24: 365_G11 (antibody, V domains shown)
VH: B1 VH with D30S, S33G, S49A
VL: B1 VL with L30I, S31T, V47L, A51V, E93N, N94S
B25: 367_A04 (antibody, V domains shown)
VH: B1 VH with D30S, G55S, T58K, G59S
VL: B1 VL with L30I, S31T, V33L, V47L, H55A, Y92D, E93D, N94S
B26: 366_A07 (antibody, V domains shown)
VH: B1 VH with D30S, S33G, N35H, S49A, N50S
VL: B1 VL with L30V, N94S
B27: 366_B08 (antibody, V domains shown)
VH: B1 VH with S33G, T58K, A106H
VL: B1 VL with L30V, V33L, V47L, E93D
B28: 366_F04 (antibody, V domains shown)
VH: B1 VH with D30S, S31D, S33G, N50G, G59S
VL: B1 VL with A51T, N94S
B29: 367_A05 (antibody, V domains shown)
VH: B1 VH with D30S, S31D, S33G, N50S, T58K
VL: B1 VL with V33L, A51V, H55A, E93D, N94S
B30: 366_G05 (antibody, V domains shown)
VH: B1 VH with S33G, G59S
VL: B1 VL with L30I, H55A
B31: 366_B12 (antibody, V domains shown)
VH: B1 VH with D30S, S49A, N50G, G55S, T58K
VL: B1 VL with S31T, V47L, H55A, E93D
B32: 366_H08 (antibody, V domains shown)
VH: B1 VH with D30S, S31D, S33G, S49A, N50S, G55S, G59S, A106H
VL: B1 VL with V47L, E93N
B33: 366_G04 (antibody, V domains shown)
VH: B1 VH with D30S, N50G, G55S, G59S
VL: B1 VL with L30I, S31T, V33L, V47L, H55A, Y92D, E93D, N94T
B34: 365_H11 (antibody, V domains shown)
VH: B1 VH with D30S, N50G, G55S
VL: B1 VL with S31T, V33L, V47L, H55A, E93D, N94S
B35: 366_B10 (antibody, V domains shown)
VH: B1 VH with D30S, S33G, N50G, G55S, G59S
VL: B1 VL with L30I, V33L, V47L, H55A, E93D
B36: 367_B03 (antibody, V domains shown)
VH: B1 VH with D30S, S33G, S49A, N50G, T58K, G59S
VL: B1 VL with S31T, V33L, V47L, R54L, H55A, E93N, N94L
B37: 367_B07 (antibody, V domains shown)
VH: B1 VH with D30S, S31D, S49A, N50G, G55S, A106H
VL: B1 VL with L30I, V47L, R54L, H55A, E93N, N94L
B38: 366_E10 (antibody, V domains shown)
VH: B1 VH with S33G, N50G, T58K, A106H
VL: B1 VL with E93S, N94L
B39: 366_H07 (antibody, V domains shown)
VH: B1 VH with D30S, S33G, N35H, N50G, G59S
VL: B1 VL with L30I, A51V, H55A
B40: 366_F05 (antibody, V domains shown)
VH: B1 VH with D30S, S49A, G55S, T58K, G59S, A106H
VL: B1 VL with S31T, V33L, V47L, H55A, Y92D, E93N, N94T
B41: 366_F07 (antibody, V domains shown)
VH: B1 VH with D30S, S31D, S49A, N50G, G55S, G59S, A106H
VL: B1 VL with L30I, S31T, V33L, V47L, H55A, N94T
B42: 367_B08 (antibody, V domains shown)
VH: B1 VH with D30S, S31D, S33G, N50G, T58K
VL: B1 VL with S31T, V33L, H55A, E93D
B43: 366_D04 (antibody, V domains shown)
VH: B1 VH with D30S, N50G, G59S
VL: B1 VL with L30S, V47L, A51T, H55A, N94T
B44: 365_H03 (antibody, V domains shown)
VH: B1 VH with S31D, S33G, S49A, N50G, T58K, G59S
VL: B1 VL with R54L, E93N
B45: 366_H06 (antibody, V domains shown)
VH: B1 VH with D30S, S33G, N50S
VL: B1 VL with V33L, V47L, A51T, H55A, E93D, N94T

Substitutions are numbered along the chain they refer to.

The target of the first test is human Fc (human). Put plainly: ELISA; negative control. (In general: ELISA stands for enzyme-linked immunosorbent assay.)
As to B1, the optical density was 0.165 OD.

The molecule B2 came in with an optical density of 0.182 OD.

Molecule B3 showed an optical density of 0.524 OD.

As for B4, the optical density was 0.163 OD.

B5 gave an optical density of 0.161 OD.

Take B6: the optical density was 0.202 OD.

In turn, B7 registered an optical density of 0.193 OD.

Consider B8, for which the optical density was 0.167 OD.

With B9, the optical density is 0.2 OD.

For the molecule B10, the optical density was found to be 0.251 OD.

In turn, B11 had an optical density of 0.163 OD.

Regarding B12, the optical density was determined as 0.158 OD.

B13 gave an optical density of 0.527 OD.

For B14, the optical density turned out to be 0.25 OD.

As to B15, the optical density is 0.162 OD.

With B16, the optical density stood at 0.244 OD.

In the case of B17, the optical density worked out at 0.169 OD.

As for B18, the optical density amounted to 0.166 OD.

Consider B19, for which the optical density came out at 0.202 OD.

The molecule B20 gave an optical density of 0.191 OD.

In the case of B21, the optical density is 0.214 OD.

The molecule B22 displayed an optical density of 0.176 OD.

As to B23, the optical density was 0.186 OD.

For another test, the target named is Human Fc (human). The test is described as follows: ELISA; negative control.
Consider B24, for which the optical density worked out at 0.278 OD.

The molecule B25 gave an optical density of 0.267 OD.

B26 returned an optical density of 0.309 OD.

On to B27, for which the optical density amounted to 0.403 OD.

B28: the optical density was determined as 0.281 OD.

B29 returned an optical density of 0.269 OD.

On to B30, for which the optical density was determined as 0.28 OD.

Take B31: the optical density came to 0.311 OD.

Molecule B32 displayed an optical density of 0.417 OD.

Molecule B33 registered an optical density of 0.31 OD.

B34 had an optical density of 0.375 OD.

The molecule B35 had an optical density of 0.424 OD.

Molecule B36 yielded an optical density of 0.318 OD.

In the case of B37, the optical density stood at 0.236 OD.

B38: the optical density came to 0.271 OD.

Molecule B39 displayed an optical density of 0.285 OD.

B40 had an optical density of 0.279 OD.

The molecule B41 registered an optical density of 0.353 OD.

With B42, the optical density is 0.37 OD.

In the case of B43, the optical density was determined as 0.338 OD.

Consider B44, for which the optical density was 0.366 OD.

In turn, B45 yielded an optical density of 0.285 OD.
